Test results: patent publication US12728152B2, “Growth and differentiation factor 15 for treatment of proliferative vitreoretinopathy therapy” (The Board of Trustees of the Leland Stanford Junior …, priority 2020, dated 2026)

Key:
[1] = system: ESC-NPCs; experiment: GDF-11-induced upregulation of EMT marker Fibronectin in ESC-NPCs (immunofluorescence); type: cell-based; conditions: ESC-derived NPCs
Procedure: FIG. 1. Smad2 inhibition (A) or simultaneous culture with GDF-15 (B) blocks GDF-11-induced upregulation of EMT marker Fibronectin in ESC-NPCs. Scale bar=100 μm.
(A) ESC-derived NPCs were pre-treated with DMSO or Smad2 inhibitor SB431542 (10 μM) for 1 h and then co-treated with PBS or GDF-11 (50 ng/ml) for another 7 days before harvest. (B) SC-derived NPCs were pre-treated with PBS or GDF-15 (50 ng/ml) for 1 h and then co-treated with PBS or GDF-11 (16.7 ng/ml) for another 7 days before harvest. GDF-15 was added daily while SB431542 and GDF-11 was only added one time in the beginning. Nucleus (DPAI) and EMT (Fibronectin) marker were then detected by immunofluorescence.

[2] = system: ARPE-19 cells; experiment: TGFβ-2-induced upregulation of phosph-Smad2 and EMT marker Fibronectin in ARPE-19 cells (Western blot); type: cell-based, Human; conditions: N=3, P<0.05
Procedure: FIG. 2: Simultaneous culture with GDF-15 reduces TGFβ-2-induced upregulation of phosph-Smad2 (A) and EMT marker Fibronectin (B) in ARPE-19 cells. (N=3, *P<0.05).
(N=3, *P<0.05). Human adult retinal pigment epithelial cells (ARPE-19) were pre-treated with PBS or GDF-15 (50 ng/ml) for 1 h and then co-treated with PBS or TGFβ-2 (1 ng/ml) for another hour (A) or 2 days (B) before harvest. For Fibronection detection, GDF-15 was added daily while TGFβ-2 was only added one time in the beginning. GAPDH (loading control), p-Smad2 and Fibronectin proteins were then detected by Western blot.

| Molecule | GDF-11-induced upregulation of EMT marker Fibronectin ([1]; SB431542 10 μM pre-treated 1 h, then co-treated with GDF-11 (50 ng/ml) 7 days) | TGFβ-2-induced upregulation of EMT marker Fibronectin ([2]; GDF-15 50 ng/ml pre-treated 1 h (added daily), then co-treated with TGFβ-2 (1 ng/ml) 2 days) | TGFβ-2-induced upregulation of phosph-Smad2 ([2]; GDF-15 50 ng/ml pre-treated 1 h, then co-treated with TGFβ-2 (1 ng/ml) another hour) | GDF-11-induced upregulation of EMT marker Fibronectin ([1]; GDF-15 50 ng/ml pre-treated 1 h (added daily), then co-treated with GDF-11 (16.7 ng/ml) 7 days) |
| --- | --- | --- | --- | --- |
| NC(=O)c1ccc(-c2nc(-c3ccc4c(c3)OCO4)c(-c3ccccn3)[nH]2)cc1 [SB431542, reference compound] | blocks |  |  |  |
| GDF-15: secreted ligand of the TGF superfamily of proteins; human GDF-15 protein, SEQ ID NO: 1 (protein, listed as Homo sapiens) MPGQELRTVNGSQMLLVLLVLSWLPHGGALSLAEASRASFPGPSELHSEDSRFRELRKRYEDLLTRLRANQSWEDSNTDLVPAPAVRILTPEVRLGSGGHLHLRISRAALPEGLPEASRLHRALFRLSPTASRSWDVTRPLRRQLSLARPQAPALHLRLSPPPSQSDQLLAESSSARPQLELHLRPQAARGRRRARARNGDHCPLGPGRCCRLHTVRASLEDLGWADWVLSPREVQVTMCIGACPSQFRAANMHAQIKTSLHRLKPDTVPAPCCVPASYNPMVLIQKTDTGVSLQTYDDLLAKDCHCI |  | reduces | reduces | blocks |
